Test results: patent US20260022144A1, “ANALGESIC POLYPEPTIDE” (Shanghai Puyou Biomedical Co., Ltd., priority 2022, published 2026)

What was measured:
[1] = system: eye pain (ocular neuropathic pain) model induced by benzalkonium chloride in mice; test: Eye pain model induced by benzalkonium chloride in mice, scratching behavior test; format: in vivo, mouse; details: eye drops TID, 30 μg/ml, 10 μL (0.3 μg/eye/each time), after 2 days of treatment, 2M NaCl challenge, vs model group
Protocol: C57BL/6JNifdc mice were used in the experiment. Briefly, each of the mice was fixed with one hand, with one eye prop opened with the other hand (and fixed with another lab technician). The modeling drug, i.e., 0.1% benzalkonium chloride was dripped into one eye (twice a day (9:00, 17:00), 10 μL each time) and maintained for 30 seconds. The operation was repeated for six days.
In order to evaluate the pathological changes at the front of the mice's eyes, slit lamp photos were taken on the third day since the beginning of modeling. According to the photographic results, the mice's eyes were scored from three viewing angles, including corneal opacity (0: clear, 1: visible opacity, 2: difficult to find, 3: pupil invisible), conjunctival edema (0: absent, 1: slight edema, 2: edema, 3: severe edema) and congestion (0: absent, 1: slight congestion, 2: congestion, 3: severe congestion, 4: hemorrhage), to access and evaluate the damages at the front of the mice's eyes. The mice were then randomized into groups. […]
Scratching behavior test: The eyes were administered for two consecutive days. […] After acting for 5 seconds, the mice were released back into the cage, and the numbers of wipes over the eyes within 30 seconds were counted.

[2] = system: chemotherapy-induced peripheral neuropathy model induced by cisplatin in mice; test: Cancer pain associated with CIPN model induced by cisplatin in mice, mechanical allodynia test; format: in vivo, mouse; details: C57BL/6 mice; for pain thresholds (50% PWT) of treatment groups vs model group, preventive effect: 15 mg/kg i.p. qd or bid in parallel with cisplatin
Protocol: The experiments in this Example were divided into two parts. In the first part (Part I), the administration of SEQ ID NO: 29 was performed in parallel with modeling to explore the preventive effect of the polypeptide of the present disclosure on cancer pain associated with CIPN, in particular CIPN induced by cisplatin. In the second part (Part II), after elution of SEQ ID NO: 29 from the mice's bodies, mechanical allodynia tests were performed on the mice to confirm that the animals still had the cancer pain associated with CIPN, and to explore the therapeutic effect of the polypeptide of the present disclosure on cancer pain associated with CIPN after modeling.
44 male C57BL/6 mice weighting 20 to 25 g were randomly divided into 4 groups, with 8 mice in the control group (Group 1, administered with vehicle (normal saline)), 12 mice in the model group (Group 2, administered with vehicle (normal saline) and cisplatin (2.3 mg/kg, i.p., qd)), 12 mice in the treatment group (qd) (Group 3, administered with SEQ ID NO: 29 (15 mg/kg, i.p., qd) and cisplatin (2.3 mg/kg, i.p., qd)) and 12 mice in the treatment group (bid) (Group 4, administered with SEQ ID NO: 29 (15 mg/kg, i.p., bid) and cisplatin (2.3 mg/kg, i.p., qd)).
Administration of SEQ ID NO: 29 was performed on scheduled dates. Briefly, SEQ ID NO: 29 was administered qd or bid by intraperitoneal injection on each day from Day 1 to Day 11, followed by a washing-out period ranging from Day 12 to Day 23. Afterwards, the administration of SEQ ID NO: 29 was resumed on the basis of the same regimen as above, lasting from Day 24 to Day 30.
The mice were subjected to mechanical allodynia tests 0 h before administration and 2 h after the first administration of the test articles (normal saline or SEQ ID NO: 29) according to the method as recited in Example 1 on Day 6, Day 10, Day 23 and Day 30, respectively.

[3] = system: bone pain model induced by Walker 256 breast cancer cells in rats; test: Bone pain model induced by Walker 256 breast cancer cells in rats, mechanical allodynia test; format: in vivo, rat; details: Wistar rats; for pain thresholds (50% PWT) of treatment group vs model group: 60 mg/kg i.v. once a day
Protocol: 28 female Wistar rats in total were randomly divided into 3 groups based on body weights, with 8 rats in the Sham group (Group 1, administered with vehicle (normal saline)), 10 rats in the model group (Group 2, administered with vehicle (normal saline)) and 10 rats in the treatment group (Group 3, administered with 60 mg SEQ ID NO: 29/kg).
A summary of the method for inducing bone pain model in rats by means of intratibial injection of a suspension of Walker 256 breast cancer cells is provided hereinafter. Briefly, the rats were anesthetized, then 4 μL of a suspension of Walker 256 cancer cells (containing about 4× 10^5 cells) was injected into the tibia cavity of the right hind limb of the rats (day 0). The rats in Sham group were injected with an equal volume of normal saline.
After injection of cancer cells (day 0), administration was started on the next day (day 1) and performed once a day for a consecutive period of 14 days (day 1, day 2 . . , day 14, respectively).
The rats were subjected to mechanical allodynia tests 1 h before and after administration of the test articles according to the method as recited in Example 1 on day 7 (D7) and day 14 (D14), respectively.

B1: SEQ ID NO: 29: exemplary polypeptide of the present disclosure; artificial polypeptide of formula (I) X-Y (protein)
chain: SEKKQPVDLGLLEEDDEFEEFPAEDWAGLDEDEDAHVWEDNWDDDNVEDDFSNQLRATVLLMILVAETPYGAYVLHQKGRMASAFLAA
[1]
  numbers of wipes over the eyes within 30 seconds: significantly decreased numbers of wiping over the eyes (P<0.01)
[2]; 15 mg/kg i.p. qd or bid Day 24 to Day 30, Day 30 vs Day 23
  pain thresholds (50% PWT) of treatment groups, therapeutic effect: significantly increased
[2]; Day 6
  pain thresholds (50% PWT) of treatment groups vs model group, preventive effect: significantly higher than those of the mice from the model group
[2]; Day 10
  pain thresholds (50% PWT) of treatment groups vs model group, preventive effect: significantly higher than those of the mice from the model group
[2]; 15 mg/kg i.p., qd vs bid
  levels of pain thresholds under different dosing frequency: dose-related
[3]; 60 mg/kg i.v. once a day for 14 days
  course of pain thresholds (50% PWT) of treatment group vs model group: increased gradually with the increase of the number of administrations
[3]; 1 h after administration on day 7 (D7)
  pain thresholds (50% PWT) of treatment group vs model group: increased significantly
[3]; 1 h after administration on day 14 (D14)
  pain thresholds (50% PWT) of treatment group vs model group: increased significantly
[3]; before administration on day 7 (D7)
  pain thresholds (50% PWT) of treatment group vs model group: no significant difference
[3]; before administration on day 14 (D14)
  pain thresholds (50% PWT) of treatment group vs model group: increased significantly
